Results taken from the NTF2 design screens of Basanta et al. (2020).

Assay: protease stability score; higher = more stable; yeast display proteolysis, trypsin and chymotrypsin;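 further: log10 excess protease needed over predicted unfolded state with 0 meaning unfolded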

Sequence	protease stability score
DEEDQKVFERILEIFKTGDEEEAQKNMDKDVRVQYGDKQLHGRENIARELQTKMNELRYKFSIESVENHNGQVRVNFQFVENHNGRPSRKKAKLVVHFRNGKLRNFEQQDVS	0.534
DEEDQLKEIVERVHDVYKHGDEDKVRKMVDPNARARIGDKRIHGHDNFAKMIAEWKRKADSVSVHVEEFRVSGNKMTMTIRIKMDHNGRDTTFRYTAVATNTNGRVRVVRIQEK	0.049
DEEDQRRVAHDAADALRTGDPDRMVQLADPNVTLDIGDKRFTGDEEFHKAMKEISRQVDHMKIDSYTVRNGRASISAVLEVNGKRKRVFFVFVIHNGRIKELHIKTE	1.59
DEEDQRTIAKEVVKVMETGDEDRMRELVDEDVKVQYGDKTVHGREQAQRAMKDLRRRADHITMDSVTVHNGEITIKAQLKYNGQNQRVVVQVRVHNGKIKEFRFREQ	1.34
DEEDRHELQRRAEHGDFLNLAHNADPNAHIKVGDKDLTGREDLDHVLRKMHNRIDRYHLVHVTKTGDKLVVRAQARVDGRDIEFKMEIRARNGRIKEVSIRFRSEEDQKTFEKLLK	0.059
DEEDRKSLHDLNRTGDEDEIAHNVDPNAKLDVGEFKVHGSEQVKKVMEELKKRIDHRHIRSISVRGDKLVARVQIDVNGQTAYYRLIIRVHNGRIKEINADYTSEDDKKAVNEAKS	0.756
DEEDRRKAKEAAERNDWKHFSDQMDEDVRVLVGDKRFHGREEAKQFVQKVEDRADTQSVDSVDVQGNQVDLDMKLNINGNDVRAQFEFYFHNGRIKEIKVTFTDPREERQFKELIK	1.25
DEEDSKQMKQVLEAIRRGDEDHVRQQFDPNARIRVGDKEYHGMEEYASDLRSKRSKLDHKINLKTMSASNGRIDFVVQVQFTIDGQPVTDEVRATAVVHNGKIVSLSNEVDEERISEVEK	-0.705
DEEDVDRAARKFAEGNPDDVLKLADPNAELHVGDQTVHGKEDLERVMELDKRRIDHIHVNSMSVQGDNVKVLFKVVVNGRNIEFTLTANAHNGSIQFVMLNFTDERDEDKRRKALS	0.28
DEEDVDRFAKTFAEIFQSGNPENIREMMDPNARLHVGERTYHGRETIVQYLKRLRRDVDSIHLVSITNHGESIVIKVSLDVNGQHVVVHINVHFQNGRIKSMSMTYRDEEDRKKYEG	2
DEEDVEKMVRLVRDGDWEQFARNADENVRIQIGNREVHGRNEAHKAADKLTKHIDHFRIDRYDRNGDKLDVLFRMTVNGQEVKARMYVEVHNGRVTRMEIRATSEEILKRIDEVLS	1.37
DEEDVKKAETLIKNGDWERIANHLDPNAKATYGDKTFHGHEELKRVIKNLQDQVDSLHIHKVDVQGNSVIVSADLHVNGETLKMTFVMHVHNGRVKEVSANVTSSELKELLDHMLS	0.749
DEEDVKKILDKVLKMAVKGDKDQVKTMLKPDVEYIHIDEKRQGQQVAEQVHKEIKKVGARAEIKEKTVEGDKAKVTYQFKVNGRTVEVTAEVEAKDGRVDKWQVHISDEAKEMMTKG	-0.289
DEEDVKRAERFQKHYQQGNTEEMRKLLDKNARIEVGDKTLHGRDDAKDKLRKNLDNWRFSMDSVDNKLKNGQVRIDIKYRMVINGRPFSITYKLNVKFENGKVQFMEDRISEDDQRHLEK	0.582
DEEDVKRAVEIFNTNNEEDLRRLVDKHAKITVGDKDVHGRKTAETLIHKLNSQADRIHLESVHKNGEQVVIKMVADVNGEKLDFQIVFVIKNGRLTSQRNVARNEDVERTLKNLYS	-0.119
DEEDVKRFAREFFTALQKNDEKKVTDLVDENARAEVGEREYHGREDVATMLARFNKRVDHAHLKRLEVTGDQVIMVFEVVHDGRKTNVSIDMRVHNGRLLEFRMETS	1.41
DEEDVKTLMNLMRNNNFEDLQRMADPNAKVIVGDQTYQGQKEVRTFLHKLKDQIDHLDIKSLDYHNGRVVLDVEATVNGQRFRYVLTVDVHNGHVKSVRFQARSEKDERILKEQAS	1.11
DEEDVKTMIRIINTGDPDKFEKYFDPNASVRIGDHTFKGNKQVSEFIRRMRRKADHIEVKRVKTTNGRADIDLVVTFNGREIRFHVHAEAHNGKAERQELKVTDPNQQKELNNLVH	0.837
DEEDVRRMENVVRENNEHRLAQLADKNARMTVGDQTYHGKEKIAEAIRRVQKQVDHMEIERLTIHGDKIRADVTMVVNGQRFRYVVVFNVKNGRLKERSVNFRDERDSEEFKKIEK	0.021
DEEDVRRVAKQAKEYVQKGNKEKLMDLGKEGVDYRVLDHKAKGPEAIKTMQDYLERKGARVEVKKLEVKGDQVRTEVHYKQGDTTATAEVHATVKGGKIDKVKVDLSDRAKEILKHG	-0.141
DEEDVTRLAEEMVRAFESGNPEDWVKMLDENARVRIGDKVYHGREQVQTFANSWVSRADHARVESFSVHGDNIHIKAVMDIDGVRVQVIIVARAHNGRVQELRVEWRNEDQKKHVDK	1
DEEDYKKMNEQLERIYKHGDPEEAEKMFDPNAKAEVGDKTIHGREEFRKYQQDRKDQADHVQVKDFKVQGERFVMEVVAHVNGREVRQVVNFTVHNGKIQDLKVREK	0.013
DEEDYKSIATEFVQALREGDEQHFRRLLDEEVNNDVGDKRIRGREKVETELRKILHKVDHVDVKDYKVHNGHVTVDMRFDDNGKEERWTMQAQFHNGRLKSIWMRTR	1.08
DEEEADKVAKDFNRMLTKGDEHRASQLFDENATVVVGDKTVHGTESIKKIIHEIHRKADHIEIDSVKNRGNKVQVDLHQDINGTRERYVFHVSFHNGRIKYAEINQD	-0.322
DEEEADSWMKILQTNDEKKARDNIDPNATAHVGEQRFDGAQDFVARFMQVLKSADHVRIHSVDHEGDKVRMDITFDINGQRARVVLNIQIKNGRVVHVSVEVRNEEVKKVFDKALK	0.16

Sequence	protease stability score
DEEEAEKILEKLVKAVENGDETKLMQLGADGVRYKVGDREDHGPEAIQKAMQYLKRYGVRVEFKEVKHKGDRVTTVAEYENGDKRNTVTIHAHAKGGKIDEVQVNVDEDLVKFIKHG	0.266
DEEEAHELLKKVLHYTVKGNVDELRKFVKPDLKYVLGDQEHQGSQVADQVEKEIRRQGTRLEVEKAEVKGDKAELQYRFTVAGKTFTLHVRVRAKDHRVDEWKVEMTDDVKEYQKKG	0.391
DEEEAHKFQEAVERNDFEKFVRNADPNAHVQVGDQHIDGHDKMRKQYHDLKRAADKIEYKSIDVQGDKIDVKFTVRFNGREYEVHMQIEVHNGRLKTVKYDATSEHNRTILQEMMS	-0.032
DEEEAHKVKDVVENGDPDTLQNMADKDATARYGDKQVHGREQVRTAIKLWMDHVDHIDIRNIHVEGNKVNVDAVFNVNGRNLNVRFRMEVHNGKIKSFELQATDERIRETLERILS	1.02
DEEEAHKVQEAWKTGDPDHLRDLFDKDVRLVYGDQEVHGREELVKIFKKQQDQYDHQHIERVSLTGNRVEIRYKAVVNGQTVSRVIYIKIKNGRIKEMEIRATNPEELKEMYRLAS	0.284
DEEEAKEFADVFKNGDQDRYADLFDPNARVNIGNKEYHGRERVRTAVRTFFQRIDHIQVNHVRIEGNQLRIDAKMEINGQRIQVVFKVRIHNGHIKQFVVDFRDEQTMREFHKQLE	1.27
DEEEAKEMMEKWMKIVEKGDSDKAQKIYKPNVVWENVDKKTQGVKQVKEMVKRIKDQGMEFQVRRAEVEGNTVEVQYDVRIGNTTVTFKVQVKAEGGRIDEVRVELDETAVKQLKKG	0.31
DEEEAKKFMETWQKAVEKGDTKTARELYDPNVEWIDYSQRHQGVEMVVKQMQQVKKKGVEFQIRKAKVEGNEVEVVYDANIGNETATFTVQFRAEGGRVKEVRVKMDEKAKKIKREG	0.064
DEEEAKKIVETVVKAVENGDVEKLKQMIKEGGKYKVINRERHGPEAVEEVIRLLQKAGVEMEFKEVRVEGNTATTRVEYRHGDKEAEVKVTATMQGGRIDEVRFKMSEEAQKMVEHG	1.08
DEEEAKKNVKVWEQNDPDTFNKLVDKDAKAVIGDKEVHGRSEINRIIKRLLQQADHWQVDEVHIHNGRVHISYQFVINGQRLDVRVTIELRNGRIKDVKVHFTDDEQKKRANENVR	0.943
DEEEAKKVLDKAVKAVKNGDLKHLKDLGKDGVEYRIADKKAHGPEQIEKVMEYLHRKGVRIEFKRQEVKGNTVTTDIEYQQGDETYTVQAHATVKGGRIDKVEIDVSERAKKVMDHG	0.149
DEEEAKKVMEKWMKVVQKGDKDKVKKLYPPNVNWLNINTQKQGVEVVVKMMKQVQDKGAQFQVRRAEVKGDEAEMQYDLRIGDKTATFTVRIRAKGGQVEMVEVKVTEEAKKIVDTG	0.111
DEEEAKKVVDQAVKYFQNGDAEKLRDLGKEGVKYRVADVEAHGPEVVLKAVERLKRQGVKIQYRKVEVKGDTVTTQLDYQQGDRTFTVTIEAEVKGGKIDRVEADANEDAKKIVKHG	0.172
DEEEAKKVVETAVKYLQKGNVKQLKDIGHEGVDYQVADNKKKGPDAIEDVLRYLEKLGVRMEVKKQEVKGDTAHTVVDYQQGDTKVRATVEADIQGGRIDRVQVNVPETLKKILKHG	-0.284
DEEEAKRQMEEFAHGDPDKMVNNVDENADAVVGDRRFHGRKDIKEWAERMKKRIDTNKYEHVEQQGDKVDAIYNITVNGQELRFKLVIKIDNGRVEYVKVDVTDEENLKILQEIFS	0.121
DEEEAQDVLQEVFKAVSRGDEDRAEQLADPNAKAEYGDKSYHGKKVIKEAVRRMSEQADHFEFKHIDHDEGRVVFDMEIEFNGQTFKVKVKAQAHNGRAQNFKFQFRSEDDLERLQS	-0.23
DEEEAQKFRKHAKSNDQDNMRRMMDEDVRVIVGDFEVQGREDAEENLLRLNQRVDHISVKSIDVQGEHVTVDVEMTIDGTKFVVVYVVQFHNGRIKQLDLRARDEKDEKAFRRAVG	0.234
DEEEASTIAKVFRTNNWEELVRLADENAKVKVGDKEVHGRHVVDEMVKLISDAADTIKYDSYTVQGEKIEMVVKLVINGQKVEFKLTARAHNGRIKEIVLSVRDEDQKRKFEKEDG	0.783
DEEEDAEKLLERREKVFRQGDPDQMQRMMDPNARIKVGDREVHGREEVDRTLLEQARKADHIRFELKDMRVQGDKVVLDVHVKFEVNGRHQSRQVQYVAQFHNGRYTFRSARER	0.047
DEEEDEKFVEFLKNVERGNEDKLRELVPPDAKNQVGDTVVEGRDEWLKKLTSELKKSRVTYNVKSVSASNGRMSLVVDVTVDENGRPQKRDLRIDATVHNGKWQKVHLKFDS	0.342
DEEEDKKMLDNINTIWERGNPDEIEKLIDPNARVQVGDKTLHGREQIKHFLKRLHERIDHFEYQSVSAHNGRMRARVRFRVNGVHVRMEIDATYNNGKVKKMEVRVTDEKHLERARK	0.741
DEEEDKKVKHLITNIREGNSDDFIKMMDPNARLVYGDQRVKGTSQAREFVHSLHEQARIDLEVKHITAHNGRIDVTVKMELEVNGQPYRFSVNVIVHIRNGKVQEVVFQFDPRDEQRNRK	1.24
DEEEDNELAKRAAKAMSTNDEDQVENLVDKDVRLEVGDKTYTGDEQVRSAIQEFRRRADHVKVNKLKVEDGQANLRFTVNWNGVELDMVIHVKATNGKIKTVTIKVRDPEQERRFKS	0.024
DEEEDQRVAVDALKVIWRGDSDEAQKLFDPNARFRVGDTVYHGRENVKTALRRFRERADHIRVDHIETQGEHAVAKATVHSNGRTRRLRVHATVHNGRAKEAEVRDS	0.012
DEEEEARKFVKTAQDKARQGNEDQLQNMADKDARVEVGDKVIHGRNEAVKTRREENKRYDRVHNDVQHITLRPGQITIRMRVHVEHNGQRRHREFVFVMHNNNGEWHVEFVEVK	-0.045
